The data set can be described thus: soluble on expression in E. coli; label from the status in PepcDB or PDB records.
Regarding “MSLVPHHQPCPPASSLSAGPRGGVIMLILKNVTAVQLHPAKVQEGVDIAIENDVIVAIGDALTQRYPDASYKEMHGRIVMPGIVCSHNHFYSGLSRGIMANIAPSPDFISTLKNLWWRLDRALDEESLYYSGLICSLEAIKSGCTSVIDHHASPAYIGGSLSTLRDAFLKVGLRAMTCFETTDRNNGIKELQEGVEENIRFARQIDEAKKAATEPYLVEAHIGAHAPFTVPDAGLEMLREAVNATGRGLHIHAAEDLYDVSYSHHWYGKDLLARLAQFDLIDSKTLVAHGLYLSKDDIALLNQRDAFLVHNARSNMNNHVGYNHHLSDIRNLALGTDGIGSDMFEEMKFAFFKHRDAGGPLWPDSFAKALTNGNELMSRNFGAKFGLLEAGYKADLTICDYNSPTPLLADNIAGHIAFGMGSGSVHSVMVNGVMVYEDRQFNFDCDSIYAQARKAAASMWRRMDALAEGHHHHHH”, the “soluble on expression in E. coli” value is on record as “soluble”.
Take “MGSDKIHHHHHHMLSMAGQVIAEDTAKAIEAAVHHEARLERDKARDGSRHPEAILNFFEVAPGQRVLDLFSGGGYYSELLARVVGEQGSVLVHNNQAYLPFAKEDLAERHYQERLPNAEVIISEADELQLPAASFDRIFFILGFHDTYYHEPGWPAIDRERLLQQMFTSLKPGGIVAIIDHDAAPESDTDTAHELHRLAKRHVVDAMEAAGFKLQGSLAVLENPEDKLTLSAFDEAVRGKTSRYVLMFVKPKL”: the “soluble on expression in E. coli” value was “not soluble”.
For “MKALLLLVLPWLSPANYIDNVGNLHFLYSELCKGASHYGLTKDRKRRSQDGCPDGCASLTATAPSPEVSAAATISLMTDEPGLDNPAYVSSAEDGQPAISPVDSGRSNRTRARPFERSTIRSRSFKKINRALSVLRRTKSGSAVANHADQGRENSENTTAPEVFPRLYHLIPDGEITSIKINRVDPSESLSIRLVGGSETPLVHIIIQHIYRDGVIARDGRLLPGDIILKVNGMDISNVPHNYAVRLLRQPCQVLWLTVMREQKFRSRNNGQAPDAYRPRDDSFHVILNKSSPEEQLGIKLVRKVDEPGVFIFNVLDGGVAYRHGQLEENDRVLAINGHDLRYGSPESAAHLIQASERRVHLVVSRQVRQRSPDIFQEAGWNSNGSWSPGPGERSNTPKPLHPTITCHEKVVNIQKDPGESLGMTVAGGASHREWDLPIYVISVEPGGVISRDGRIKTGDILLNVDGVELTEVSRSEAVALLKRTSSSIVLKALEVKEYEPQEDCSSPAALDSNHNMAPPSDWSPSWVMWLELPRCLYNCKDIVLRRNTAGSLGFCIVGGYEEYNGNKPFFIKSIVEGTPAYNDGRIRCGDILLAVNGRSTSGMIHACLARLLKELKGRITLTIVSWPGTFL”, the “soluble on expression in E. coli” value is recorded as “soluble”.
With “GAMAATAAEAVASGSGEPREEAGALGPAWDESQLRSYSFPTRPIPRLSQSDPRAEELIENEEPVVLTDTNLVYPALKWDLEYLQENIGNGDFSVYSASTHKFLYYDEKKMANFQNFKPRSNREEMKFHEFVEKLQDIQQRGGEERLYLQQTLNDTVGRKIVMDFLGFNWNWINKQQGKRGWGQLTSNLLLIGMEGNVTPAHYDEQQNFFAQIKGYKRCILFPPDQFECLYPYPVHHPCDRQSQVDFDNPDYERFPNFQNVVGYETVVGPGDVLYIPMYWWHHIESLLNGGITITVNFWYKGAPTPKRIEYPLKAHQKVAIMRNIEKMLGEALGNPQEVGPLLNTMIKGRYN” the entry was “soluble”; with “MAHHHHHHMGTLEAQTQGPGSMREVLVPYAGVSPSVDSTAFIAGNARIIGDVCIGKNASIWYGTVLRGDVDKIEVGEGTNIQDNTVVHTDSMHGDTVIGKFVTIGHSCILHACTLGNNAFVGMGSIVMDRAVMEEGSMLAAGSLLTRGKIVKSGELWAGRPAKFLRMMTEEEILYLQKSAENYIALSRGYL”, “soluble”; with “MSTSEKRKGMQTDMPELQAMISQRIQEQNYREVLKGVTAFPWCTDDPCVFRTAAGNLWIAVGHVNRKSEVPKFSYKNFLCAYLLGNAEDGVAAYLDLQAAAWKGVELVMFSSHADGLSALYGDGRANDRDLLYRFFGRNYVFAVGFRKKEEKEQASAGDKIFIASVDAVGFGEIDKDGKLAVINKIMSYEQFFDDEDLKPMWGALAVKLFILKCNGYRESAKDRKALDILLHDMMKLCKSMELTAGLDDQKRKHPESAGINPQMALLKNEAMVKVHNGMDEKVKSNLPLLEWAVNHLPAKLLQEFGTFVESVPQIKEPTAYDNLMSLESVLKEMDRLFKKAAEEENLSLTKNSMTDG”, “not soluble”.
Then “MAHYPPSKDQLNELIQEVNQWAITNGLSMYPPKFEENPSNASVSPVTIYPTPIPRKCFDEAVQIQPVFNELYARITQDMAQPDSYLHKTTEALALSDSEFTGKLWSLYLATLKSAQYKKQNFRLGIFRSDYLIDKKKGTEQIKQVEFNTVSVSFAGLSEKVDRLHSYLNRANKYDPKGPIYNDQNMVISDSGYLLSKALAKAVESYKSQQSSSTTSDPIVAFIVQRNERNVFDQKVLELNLLEKFGTKSVRLTFDDVNDKLFIDDKTGKLFIRDTEQEIAVVYYRTGYTTTDYTSEKDWEARLFLEKSFAIKAPDLLTQLSGSKKIQQLLTDEGVLGKYISDAEKKSSLLKTFVKIYPLDDTKLGREGKRLALSEPSKYVLKPQREGGGNNVYKENIPNFLKGIEERHWDAYILMELIEPELNENNIILRDNKSYNEPIISELGIYGCVLFNDEQVLSNEFSGSLLRSKFNTSNEGGVAAGFGCLDSIILY”, with “soluble”; and “YLSDVISSPQFEQAKSPTTVVLGQDIAGEAVIADIAKMPHVLVAGTTGSGKSVGVNVMILSMLYKASPEDLRFIMIDPKMLELSIYEGIPHLLAEVVTDMKDASNALRWCVGEMERRYKLMSALGVRNVKGFNEKLKMAAEAGHPIHDPFWQEGDSMDTEPPLLEKLPYIVVVVDEFADLMMVVGKKVEELIARLAQKARAAGIHLILATQRPSV”, with “not soluble”.
With “MPEDLALESNPSDHPRASTIFLSKSQTDVREKRKSNHLNHCDLSNILPHKEQREKVPEEYFKHDPEHKFIYRFVRTLFSAAQLTAECAIVTLVYLERLLTYAEIDICPTNWKRIVLGAILLASKVWDDQAVWNVDYCQILKDITVEDMNEMERHFLELLQFNINVPASVYAKYYFDLRSLADDNNLNFLFAPLSKERAQNLEAISRLCEDKDLCRAAMRRSFSADNFIGIQRSKAILS” the entry was “not soluble”; with “MSLRFVFDIDGTLCFDGRLIDQTIIDTLLQLQHDGHELIFASARPIRDLLPVLPSVFHQHTLIGANGAMISQQSKISVIKPIHTDTYHHILKIIQKYELDYIIDDDWNYAAQLDAENAIFERLDPHKLASCIDVANIDTPIKIILLNIDPAQITTILDELNKYHQELEMIHHSNEYNIDITAQNINKYTALQYIFDADVKYIAFGNDHNDIFMLQHASSGYIIGPSEAYTHAILKLDKIKHINNNTQAICKVLKSYKEGHHHHHH”, “soluble”; with “MSVAGLKKQFHKASQLFSEKISGAEGTKLDEEFLNMEKKIDITSKAVAEILSKATEYLQPNPAYRAKLGMLNTVSKLRGQVKATGYPQTEGLLGDCMLKYGKELGEDSAFGNSLVDVGEALKLMAEVKDSLDINVKQTFIDPLQLLQDKDLKEIGHHLRKLEGRRLDYDYKKRRVGKIPEEEIRQAVEKFEESKELAERSMFNFLENDVEQVSQLAVFVEAALDYHRQSTEILQELQSKLELRISLASKVPKREFMPKPVNMSSTDANGVGPSSSSKTPGTDTPSDQPCCRGLYDFEPENEGELGFKEGDIITLTNQIDENWYEGMLRGESGFFPINYVEVIVPLPP”, “soluble”.
As for “MKNKLPPFIEIYRALIATPSISATEEALDQSNADLITLLADWFKDLGFNVEVQPVPGTRNKFNMLASTGQGAGGLLLAGHTDTVPFDDGRWTRDPFTLTEHDGKLYGLGTADMKGFFAFILDALRDVDVTKLKKPLYILATADEETSMAGARYFAETTALRPDCAIIGEPTSLQPVRAHKGHISNAIRIQGQSGHSSDPARGVNAIELMHDAIGHILQLRDNLKERYHYEAFTVPYPTLNLGHIHGGDASNRICAWCELHMDIRPLPGMTLNELNGLLNDALAPVSERWPGRLTVDELHPPIPGYECPPNHQLVEVVEKLLGAKTEVVNYCTEAPFIQTLCPTLVLGPGSINQAHQPDEYLETRFIKPTRELITQVIHHFCWH”, the “soluble on expression in E. coli” value is on record as “soluble”.
With “SGRHERDAFDTLFDHAPDKLNVVKKTLITFVNKHLNKLNLEVTELETQFADGVYLVLLMGLLEGYFVPLHSFFLTPDSFEQKVLNVSFAFELMQDGGLEKPKPRPEDIVNCDLKSTLRVLYNLFTKYRNVE” the entry was “soluble”.
